Laboratory results: paper PMC6077248

Target: Venus-Gβ2γ7 (Venus 156-239-Gβ2 with Venus 1-155-Gγ7), P62879-1;O60262
Assay: BRET (suppression of GRK3ct-Gβ2γ7 BRET by competing Gαolf)
Details: chain shown with the change; HEK293T/17 cells; parent: est. 100; read off a plot

B1: G protein α subunit Gαolf, wild type, P38405 P102_V104del (protein)
chain: MGCLGGNSKTTEDQGVDEKERREANKKIEKQLQKERLAYKATHRLLLLGAGESGKSTIVKQMRILHVNGFNPEEKKQKILDIRKNVKDAIVTIVSAMSTIIPLANPENQFRSDYIKSIAPITDFEYSQEFFDHVKKLWDDEGVKACFERSNEYQLIDCAQYFLERIDSVSLVDYTPTDQDLLRCRVLTSGIFETRFQVDKVNFHMFDVGGQRDERRKWIQCFNDVTAIIYVAACSSYNMVIREDNNTNRLRESLDLFESIWNNRWLRTISIILFLNKQDMLAEKVLAGKSKIEDYFPEYANYTVPEDATPDAGEDPKVTRAKFFIRDLFLRISTATGDGKHYCYPHFTCAVDTENIRRVFNDCRDIIQRMHLKQYELL
Q: B1 was tested. Which percent of parent did it give?
A: 29%
